From PMC4928626

Assays:
[1] = target: aerobactin synthetase IucA from hypervirulent Klebsiella pneumoniae hvKP1 (Klebsiella pneumoniae hvKP1 (hypervirulent pathotype)); experiment: SAXS
[2] = target: aerobactin synthetase IucA from hypervirulent Klebsiella pneumoniae hvKP1 (Klebsiella pneumoniae hvKP1 (hypervirulent pathotype)); experiment: native gel or EMSA
[3] = target: aerobactin synthetase IucA from hypervirulent Klebsiella pneumoniae hvKP1 (Klebsiella pneumoniae hvKP1 (hypervirulent pathotype)); experiment: SEC

Measured: stoichiometry N

aerobactin synthetase IucA from hypervirulent Klebsiella pneumoniae hvKP1 (from UniProt A0ACD7U9R1 1-596) (enzyme)
4: all assays above
